Assay results: patent publication US20050282743A1, “Molecular interactions in cells” (Arbor Vita Corporation, priority 2001, published 2005)

Legend:
[1] = biological target: T1, GST-NeDLG PDZ domains 1, 2, Q92796; assay: G assay titration, PDZ 1 ug/ml
T1 chain: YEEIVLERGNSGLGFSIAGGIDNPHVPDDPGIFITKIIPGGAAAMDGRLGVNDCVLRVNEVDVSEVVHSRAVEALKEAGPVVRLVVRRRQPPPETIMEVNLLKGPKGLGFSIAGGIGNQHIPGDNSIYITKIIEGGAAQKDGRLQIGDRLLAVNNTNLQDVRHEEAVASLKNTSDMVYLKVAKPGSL

[2] = biological target: T2, GST-BAI-1 Associated Protein PDZ domain 2 (Mus musculus (Mouse)), Q6RHR9; assay: G assay titration, PDZ 1 ug/ml
[3] = biological target: T3, GST-PSD95 PDZ domain 3 (Homo sapiens); assay: G assay titration, PDZ 1 ug/ml
T3 chain: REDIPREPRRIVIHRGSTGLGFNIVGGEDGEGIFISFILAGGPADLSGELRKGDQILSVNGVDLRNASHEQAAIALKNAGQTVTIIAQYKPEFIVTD

[4] = biological target: GST-PSD95 PDZ domains 1, 2, 3 (Homo sapiens), P78352; assay: G' assay; further: key of the grades not given here
[5] = biological target: T4, GST-NeDLG PDZ domain 3 (Mus musculus (Mouse)), P70175; assay: G' assay; further: key of the grades not given here
T4 chain: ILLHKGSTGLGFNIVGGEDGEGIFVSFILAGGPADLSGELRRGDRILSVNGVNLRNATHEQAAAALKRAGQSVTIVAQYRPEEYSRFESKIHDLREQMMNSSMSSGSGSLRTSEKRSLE

[6] = biological target: GST-PSD95 PDZ domain 1 (Homo sapiens); assay: G' assay; further: key of the grades not given here
[7] = biological target: T5, GST-DLG2 PDZ domain 2 (Homo sapiens (Human)), Q15700; assay: G' assay; further: key of the grades not given here
T5 chain: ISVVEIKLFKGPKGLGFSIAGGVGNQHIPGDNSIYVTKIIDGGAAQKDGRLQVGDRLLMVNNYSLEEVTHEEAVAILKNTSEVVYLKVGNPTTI

[8] = biological target: T6, GST-MUPP1 PDZ domain 10 (Homo sapiens (Human)), O75970; assay: G' assay; further: key of the grades not given here
T6 chain: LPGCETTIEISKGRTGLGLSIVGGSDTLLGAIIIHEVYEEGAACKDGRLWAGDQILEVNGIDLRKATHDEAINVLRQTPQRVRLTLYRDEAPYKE

[9] = biological target: T7, GST-DLG1 PDZ domain 3 (Homo sapiens), Q12959; assay: G' assay; further: key of the grades not given here
T7 chain: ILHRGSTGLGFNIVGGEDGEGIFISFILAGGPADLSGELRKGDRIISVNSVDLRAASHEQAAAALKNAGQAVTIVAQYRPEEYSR

[10] = biological target: T1, GST-NeDLG PDZ domains 1, 2, Q92796; assay: G' assay; further: key of the grades not given here
[11] = biological target: T8, GST-KIAA0807(S) PDZ domain 1 (Homo sapiens (Human)), Q6P0Q8; assay: G' assay; further: key of the grades not given here
T8 chain: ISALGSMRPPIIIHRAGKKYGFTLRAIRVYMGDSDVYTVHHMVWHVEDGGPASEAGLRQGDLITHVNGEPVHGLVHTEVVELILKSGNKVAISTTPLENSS

[12] = biological target: T9, GST-KIAA0303 PDZ domain 1 (Homo sapiens (Human)), O15021; assay: G' assay; further: key of the grades not given here
T9 chain: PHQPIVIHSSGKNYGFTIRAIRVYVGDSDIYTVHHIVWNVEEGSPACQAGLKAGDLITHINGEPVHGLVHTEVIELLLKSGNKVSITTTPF

[13] = biological target: GST-DLG2 PDZ domain 1 (Homo sapiens (Human)), Q15700; assay: G' assay; further: key of the grades not given here
[14] = biological target: GST-KIAA0147 PDZ domain 1 (Homo sapiens (Human)), Q14160; assay: G' assay; further: key of the grades not given here
[15] = biological target: GST-Atrophin-1 Interacting Protein PDZ domain 1 (Rattus norvegicus (Rat)), O88382; assay: G' assay; further: key of the grades not given here
[16] = biological target: GST-DLG1 PDZ domains 1, 2 (Homo sapiens), Q12959; assay: G' assay; further: key of the grades not given here
[17] = biological target: T2, GST-BAI-1 Associated Protein PDZ domain …; assay: G' assay; further: key of the grades not given here
[18] = biological target: GST-DLG1 PDZ domain 1 (Homo sapiens), Q12959; assay: G' assay; further: key of the grades not given here
[19] = biological target: T10, GST-DLG1 PDZ domain 2 (Homo sapiens), Q12959; assay: G' assay; further: key of the grades not given here
T10 chain: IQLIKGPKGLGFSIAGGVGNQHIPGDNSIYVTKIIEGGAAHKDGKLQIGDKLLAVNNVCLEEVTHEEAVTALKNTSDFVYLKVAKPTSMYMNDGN

[20] = biological target: GST-KIAA1634 PDZ domain 1 (Homo sapiens (Human)), Q5TCQ9; assay: G' assay; further: key of the grades not given here
[21] = biological target: T11, GST-NeDLG PDZ domain 2 (Rattus norvegicus (Rat)), Q62936; assay: G' assay; further: key of the grades not given here
T11 chain: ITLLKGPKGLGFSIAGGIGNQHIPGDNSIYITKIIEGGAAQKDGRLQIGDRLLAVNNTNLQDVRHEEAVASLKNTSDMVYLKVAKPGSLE

[22] = biological target: T3, GST-PSD95 PDZ domain 3 (Homo sapiens); assay: G' assay; further: key of the grades not given here
[23] = biological target: T12, GST-KIAA1719 PDZ domain 3 (Homo sapiens (Human)), Q9C0E4; assay: G' assay; further: key of the grades not given here
T12 chain: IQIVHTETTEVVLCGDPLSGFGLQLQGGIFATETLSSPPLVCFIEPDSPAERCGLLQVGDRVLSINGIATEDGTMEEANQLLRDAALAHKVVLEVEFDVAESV

[24] = biological target: T13, GST-MUPP1 PDZ domain 11 (Homo sapiens (Human)), O75970; assay: G' assay; further: key of the grades not given here
T13 chain: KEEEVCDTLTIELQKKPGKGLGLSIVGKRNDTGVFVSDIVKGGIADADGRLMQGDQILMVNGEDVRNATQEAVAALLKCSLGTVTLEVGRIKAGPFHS

[25] = biological target: T14, GST-PDZK1 PDZ domain 2 (Homo sapiens (Human)), Q5T2W1; assay: G assay titration, PDZ 5 ug/ml
T14 chain: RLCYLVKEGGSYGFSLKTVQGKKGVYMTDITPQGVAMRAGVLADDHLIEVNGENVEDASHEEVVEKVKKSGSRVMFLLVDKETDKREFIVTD

[26] = biological target: T8, GST-KIAA0807(S) PDZ domain 1 (Homo …); assay: G assay titration, PDZ 0.3 ug/ml
[27] = biological target: T15, GST-Shank 3 PDZ domain 1 (human (hypothetical, computer cloned)), Q9BYB0; assay: G' assay; further: key of the grades not given here
T15 chain: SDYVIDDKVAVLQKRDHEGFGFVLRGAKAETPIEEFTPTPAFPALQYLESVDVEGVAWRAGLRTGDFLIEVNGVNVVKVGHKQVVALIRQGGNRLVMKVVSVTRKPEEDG

[28] = biological target: T16, GST-Shank 1 PDZ domain 1 (Homo sapiens (Human)), Q9UPX8; assay: G' assay; further: key of the grades not given here
T16 chain: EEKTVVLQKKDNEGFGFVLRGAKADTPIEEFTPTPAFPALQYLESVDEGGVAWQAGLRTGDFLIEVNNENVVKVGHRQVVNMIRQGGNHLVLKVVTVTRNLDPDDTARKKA

[29] = biological target: T17, GST-KIAA0561 PDZ domain 1 (Homo sapiens (Human)), O60307; assay: G' assay; further: key of the grades not given here
T17 chain: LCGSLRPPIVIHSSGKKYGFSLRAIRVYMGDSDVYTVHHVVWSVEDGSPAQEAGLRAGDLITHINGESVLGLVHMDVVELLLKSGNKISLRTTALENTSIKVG

[30] = biological target: T14, GST-PDZK1 PDZ domain 2 (Homo sapiens …); assay: G' assay; further: key of the grades not given here
[31] = biological target: T18, GST-EZRIN Binding Protein 50 PDZ domain 1 (Homo sapiens (Human)), O14745; assay: G' assay; further: key of the grades not given here
T18 chain: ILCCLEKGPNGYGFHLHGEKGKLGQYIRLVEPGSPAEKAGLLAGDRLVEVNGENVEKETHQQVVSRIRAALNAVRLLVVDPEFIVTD

[32] = biological target: T19, GST-EZRIN Binding Protein 50 PDZ domain 2 (Homo sapiens (Human)), O14745; assay: G' assay; further: key of the grades not given here
T19 chain: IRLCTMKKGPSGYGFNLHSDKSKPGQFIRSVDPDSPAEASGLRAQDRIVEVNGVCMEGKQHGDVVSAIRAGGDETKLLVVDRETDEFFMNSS

[33] = biological target: T20, GST-PDZK1 PDZ domains 2, 3, 4, Q5T2W1; assay: G' assay; further: key of the grades not given here
T20 chain: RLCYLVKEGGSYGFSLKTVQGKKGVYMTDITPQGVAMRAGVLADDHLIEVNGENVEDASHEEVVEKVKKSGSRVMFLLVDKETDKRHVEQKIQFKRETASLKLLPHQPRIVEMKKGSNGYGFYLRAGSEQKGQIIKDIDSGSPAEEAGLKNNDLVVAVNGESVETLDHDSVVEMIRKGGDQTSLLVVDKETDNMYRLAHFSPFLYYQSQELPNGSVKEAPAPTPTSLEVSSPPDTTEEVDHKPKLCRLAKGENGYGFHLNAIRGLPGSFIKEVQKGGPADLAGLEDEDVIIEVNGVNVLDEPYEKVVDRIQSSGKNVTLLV

[34] = biological target: GST-KIAA807 [GST: P08515]; assay: G' assay
[35] = biological target: GST-DLG1 PDZ domains 1, 2 (Homo sapiens), Q12959; assay: G assay titration, PDZ 5 ug/ml
[36] = biological target: T21, GST-Outer Membrane PDZ domain 1 (Homo sapiens (Human)), P57105; assay: G' assay; further: key of the grades not given here
T21 chain: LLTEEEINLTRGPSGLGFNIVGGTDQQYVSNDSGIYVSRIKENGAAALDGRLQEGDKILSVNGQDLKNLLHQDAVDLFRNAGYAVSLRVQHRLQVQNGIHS

Chain of GST-PSD95 PDZ domains 1, 2, 3 (Homo sapiens), P78352 (P78352 62-395): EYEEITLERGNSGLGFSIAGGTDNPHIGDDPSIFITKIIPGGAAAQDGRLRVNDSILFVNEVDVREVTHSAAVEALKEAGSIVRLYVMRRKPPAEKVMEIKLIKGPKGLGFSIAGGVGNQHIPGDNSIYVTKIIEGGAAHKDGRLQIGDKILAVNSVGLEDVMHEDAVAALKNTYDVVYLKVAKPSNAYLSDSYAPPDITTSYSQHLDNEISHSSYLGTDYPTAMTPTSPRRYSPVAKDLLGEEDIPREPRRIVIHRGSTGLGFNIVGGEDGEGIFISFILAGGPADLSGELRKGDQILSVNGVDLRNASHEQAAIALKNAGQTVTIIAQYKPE
Chain of GST-KIAA1634 PDZ domain 1 (Homo sapiens (Human)), Q5TCQ9 (Q5TCQ9 401-502): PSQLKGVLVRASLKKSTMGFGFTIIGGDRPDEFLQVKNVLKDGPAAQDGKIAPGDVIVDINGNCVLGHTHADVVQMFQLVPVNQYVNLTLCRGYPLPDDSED
Chain of GST-Atrophin-1 Interacting Protein PDZ domain 1 (Rattus norvegicus (Rat)), O88382 (O88382 408-511): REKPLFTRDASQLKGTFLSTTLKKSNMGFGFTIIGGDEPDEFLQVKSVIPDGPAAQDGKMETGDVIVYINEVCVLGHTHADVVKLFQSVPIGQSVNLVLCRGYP
T2 sequence (Q6RHR9 455-558): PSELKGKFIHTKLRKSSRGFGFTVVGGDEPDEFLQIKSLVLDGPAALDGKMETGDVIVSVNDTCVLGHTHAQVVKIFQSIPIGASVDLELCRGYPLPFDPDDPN
Chain of GST-KIAA807 [GST: P08515] (P08515 whole entry, the tested form may be a part): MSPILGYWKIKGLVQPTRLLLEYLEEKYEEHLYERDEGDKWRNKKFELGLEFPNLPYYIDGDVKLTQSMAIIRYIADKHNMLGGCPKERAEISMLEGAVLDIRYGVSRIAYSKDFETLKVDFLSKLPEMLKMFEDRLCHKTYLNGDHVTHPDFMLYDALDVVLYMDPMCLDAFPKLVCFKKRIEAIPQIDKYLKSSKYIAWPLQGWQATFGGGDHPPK
Chain of GST-KIAA0147 PDZ domain 1 (Homo sapiens (Human)), Q14160 (Q14160 other isoform, or with tags, fused parts or gaps): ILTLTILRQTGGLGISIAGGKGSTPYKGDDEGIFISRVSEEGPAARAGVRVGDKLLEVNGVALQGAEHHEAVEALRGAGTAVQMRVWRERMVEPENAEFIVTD

SFTSILTCHQRRTQRKETVA (modifications not checked) [GluR5-2 (rat)]
Kd [1]: 100 nM | Kd [2]: 300 nM | Kd [3]: 100 nM | Classification [4]: 5 A450 class | Classification [5]: 2 A450 class | Classification [6]: 3 A450 class | Classification [7]: 1 A450 class | Classification [8]: 2 A450 class | Classification [9]: 1 A450 class | Classification [10]: 5 A450 class | Classification [11]: 1 A450 class | Classification [12]: 1 A450 class | Classification [13]: 1 A450 class | Classification [14]: 2 A450 class | Classification [15]: 1 A450 class | Classification [16]: 5 A450 class | Classification [17]: 5 A450 class | Classification [18]: 2 A450 class | Classification [19]: 2 A450 class | Classification [20]: 5 A450 class | Classification [21]: 1 A450 class | Classification [22]: 5 A450 class | Classification [23]: 1 A450 class | Classification [24]: 1 A450 class

PSWRRSSLSESENATSLTTF (modifications not checked) [BLR-1]
Kd [25]: 2000 nM | Kd [26]: 1000 nM | Classification [27]: 3 A450 class | Classification [28]: 3 A450 class | Classification [29]: 1 A450 class | Classification [11]: 2 A450 class | Classification [30]: 1 A450 class | Classification [31]: 3 A450 class | Classification [32]: 3 A450 class | Classification [33]: 1 A450 class | Classification [34]: 2 A450 class

LHNQASVPLEPRPLRRESEI (modifications not checked) [Kir2.1 (inwardly rect. K+ channel)]
Kd [35]: 5000 nM | Classification [4]: 2 A450 class | Classification [7]: 1 A450 class | Classification [10]: 1 A450 class | Classification [36]: 4 A450 class | Classification [15]: 1 A450 class | Classification [16]: 2 A450 class | Classification [19]: 1 A450 class | Classification [20]: 1 A450 class
